Patent US20110086041A1
pKd: −log10 of the molar value.

Tests used:
[1] = target: HXB2-gp41-interf-GCN4 (HIV-1 isolate HXB2) (UniProt P04578); assay: SPR, His-4E10 scFv on Ni-NTA chip, HXB2gp41-interf-GCN4 flowing at 50 nM, single concentration
[2] = target: 92UG-gp41-inter-Fd (HIV-1 isolate 92UG037.8); assay: SPR, 92UGgp41-inter-Fd immobilized on CM-5, 4E10 scFv flowing at 50 nM, single concentration
[3] = target: biotinylated 4E10 epitope peptide; assay: SPR, biotinylated 4E10 epitope peptide on SA chip, 4E10 scFv flowing
[4] = target: monomeric 92UG-gp120 core protein (HIV-1 isolate 92UG037); assay: SPR, b6 IgG immobilized, 92UG gp120 flowing, single analyte concentration
[5] = target: 92UG-gp41-inter-Fd (HIV-1 isolate 92UG037.8); assay: SPR, told of the gp41-inter proteins as a group
[6] = target: HXB2-gp41-inter-GCN4 (HIV-1 isolate HXB2) (UniProt P04578); assay: SPR, told of the gp41-inter proteins as a group
[7] = target: HXB2-gp41-inter-GCN4 (HIV-1 isolate HXB2) (UniProt P04578); assay: SPR, 2F5 Fab immobilized, HXB2gp41-inter-GCN4 flowing, 1:1 Langmuir model
[8] = target: short 2F5 epitope peptide; assay: SPR, 2F5 epitope peptide immobilized, 2F5 Fab flowing
[9] = target: short 2F5 epitope peptide; assay: SPR, 2F5 Fab immobilized, 2F5 epitope peptide flowing
[10] = target: 92UG-gp41-inter-Fd (HIV-1 isolate 92UG037.8); assay: SPR, 2F5 Fab immobilized, 92UGgp41-inter-Fd flowing; dissociation phase virtually flat, actual off-rate probably slower
[11] = target: 92UG-gp41-inter-Fd (HIV-1 isolate 92UG037.8); assay: SPR, told of the gp41-inter proteins as a group; Table 1 ties this value to 92UGgp41-inter-Fd
[12] = target: T20 peptide; assay: SPR, 2F5 Fab immobilized, T20 flowing
[13] = target: 92UG-gp41-post (HIV-1 isolate 92UG037.8); assay: SPR, 2F5 Fab immobilized, 92UGgp41-post flowing
[14] = target: 92UG-gp41-inter-Fd (HIV-1 isolate 92UG037.8); assay: SPR, 92UGgp41-inter-Fd immobilized, 2F5 Fab flowing
[15] = target: 92UG-gp41-inter-Fd (HIV-1 isolate 92UG037.8); assay: SPR, 2F5 Fab immobilized, 92UGgp41-inter-Fd flowing, 1:1 Langmuir model
[16] = target: HXB2-gp41-inter-GCN4 (HIV-1 isolate HXB2) (UniProt P04578); assay: SPR, 2F5 Fab immobilized, HXB2gp41-inter-GCN4 flowing; dissociation phase virtually flat, actual off-rate probably slower
[17] = target: monomeric 92UG-gp120 core protein (HIV-1 isolate 92UG037); assay: SPR; told with a reference to Rits-Volloch et al. 2006 and FIG. 6C
[18] = target: monomeric 92UG-gp120 core protein (HIV-1 isolate 92UG037); assay: SPR, b12 IgG immobilized, 92UG gp120 flowing, single analyte concentration
[19] = target: 92UG-gp140-Fd trimer (HIV-1 isolate 92UG037.8); assay: SPR, 92UGgp140-Fd immobilized, 2G12 Fab flowing, 1:1 Langmuir model

Substance: 4E10 single-chain Fv fragment (scFv)
- pKd [1]: 8.53
- koff [1]: 0.000443 s⁻¹
- kon [1]: 149000 M⁻¹ s⁻¹
- pKd [2]: 8.97
- koff [2]: 0.000171 s⁻¹
- kon [2]: 160000 M⁻¹ s⁻¹
- pKd [3]: 7.73
- koff [3]: 0.000685 s⁻¹
- kon [3]: 36900 M⁻¹ s⁻¹

Substance: mAb b6 whole IgG (antibody)
- pKd [4]: 8.57
- koff [4]: 0.000151 s⁻¹
- kon [4]: 56200 M⁻¹ s⁻¹

Substance: Fab fragment of mAb 2F5
- pKd [5]: > 8.00
- pKd [6]: > 8.00
- pKd [7]: 8.05
- kon [7]: 6820 M⁻¹ s⁻¹
- pKd [8]: 8.27
- koff [8]: 0.0015 s⁻¹
- kon [8]: 282000 M⁻¹ s⁻¹
- pKd [9]: 8.42
- koff [9]: 0.00329 s⁻¹
- kon [9]: 859000 M⁻¹ s⁻¹
- koff [10]: 1.39e-05 s⁻¹
- koff [11]: < 1.4e-05 s⁻¹
- pKd [12]: 8.32
- koff [12]: 0.00217 s⁻¹
- kon [12]: 454000 M⁻¹ s⁻¹
- pKd [13]: 5.85
- koff [13]: 0.00243 s⁻¹
- kon [13]: 1660 M⁻¹ s⁻¹
- pKd [14]: 8.49
- koff [14]: 0.000496 s⁻¹
- kon [14]: 153000 M⁻¹ s⁻¹
- pKd [15]: 8.86
- kon [15]: 10000 M⁻¹ s⁻¹
- koff [16]: 6.11e-05 s⁻¹

Substance: mAb b12 whole IgG (antibody)
- pKd [17]: 5.85
- pKd [18]: 6.00
- koff [18]: 0.0149 s⁻¹
- kon [18]: 15000 M⁻¹ s⁻¹

Substance: Fab fragment of broadly neutralizing antibody 2G12
- pKd [19]: 7.75
- koff [19]: 0.000958 s⁻¹
- kon [19]: 53500 M⁻¹ s⁻¹
